From publication PMC11774805, “The C-terminal α-helix is crucial for the activity of the bacterial ABC transporter BmrA” (The Journal of Biological Chemistry, 2024) come the findings set out here.

First the molecules themselves.
B1: BmrA L578A (natural protein, Bacillus subtilis strain 168, UniProt O06967 1-589, looked up)
chain: MPTKKQKSKSKLKPFFALVRRTNPSYGKLAFALALSVVTTLVSLLIPLLTKQLVDGFSMSNLSGTQIGLIALVFFVQAGLSAYATYALNYNGQKIISGLRELLWKKLIKLPVSYFDTNASGETVSRVTNDTMVVKELITTHISGFITGIISVIGSLTILFIMNWKLTLLVLVVVPLAALILVPIGRKMFSISRETQDETARFTGLLNQILPEIRLVKASNAEDVEYGRGKMGISSLFKLGVREAKVQSLVGPLISLVLMAALVAVIGYGGMQVSSGELTAGALVAFILYLFQIIMPMGQITTFFTQLQKSIGATERMIEILAEEEEDTVTGKQIENAHLPIQLDRVSFGYKPDQLILKEVSAVIEAGKVTAIVGPSGGGKTTLFKLLERFYSPTAGTIRLGDEPVDTYSLESWREHIGYVSQESPLMSGTIRENICYGLERDVTDAEIEKAAEMAYALNFIKELPNQFDTEVGERGIMLSGGQRQRIAIARALLRNPSILMLDEATSSLDSQSEKSVQQALEVLMEGRTTIVIAHRLSTVVDADQLLFVEKGEITGRGTHHELMASHGLYRDFAEQQAKMNADLENKAG
notes: BmrA of Bacillus subtilis strain 168, full length, L578 replaced by Ala; source: E. coli, purified in presence of detergent (DDM)
B2: BmrA L569A (natural protein, Bacillus subtilis strain 168, UniProt O06967 1-589, looked up)
chain: B1 chain with L569A, A578L
notes: BmrA of Bacillus subtilis strain 168, full length, L569 replaced by Ala; source: E. coli, purified in presence of detergent (DDM)
B3: BmrA R571A (natural protein, Bacillus subtilis strain 168, UniProt O06967 1-589, looked up)
chain: B1 chain with R571A, A578L
notes: BmrA of Bacillus subtilis strain 168, full length, R571 replaced by Ala; source: E. coli, purified in presence of detergent (DDM)
B4: BmrA D572A (natural protein, Bacillus subtilis strain 168, UniProt O06967 1-589, looked up)
chain: B1 chain with D572A, A578L
notes: BmrA of Bacillus subtilis strain 168, full length, D572 replaced by Ala; source: E. coli, purified in presence of detergent (DDM)
B5: BmrA E575A (natural protein, Bacillus subtilis strain 168, UniProt O06967 1-589, looked up)
chain: B1 chain with E575A, A578L
notes: BmrA of Bacillus subtilis strain 168, full length, E575 replaced by Ala; source: E. coli, purified in presence of detergent (DDM)
B6: BmrA Q576A (natural protein, Bacillus subtilis strain 168, UniProt O06967 1-589, looked up)
chain: B1 chain with Q576A, A578L
notes: BmrA of Bacillus subtilis strain 168, full length, Q576 replaced by Ala; source: E. coli, purified in presence of detergent (DDM)
B7: BmrA A574V (natural protein, Bacillus subtilis strain 168, UniProt O06967 1-589, looked up)
chain: B1 chain with A574V, A578L
notes: BmrA of Bacillus subtilis strain 168, full length, A574 replaced by Val; source: E. coli, purified in presence of detergent (DDM)
B8: BmrA Q577A (natural protein, Bacillus subtilis strain 168, UniProt O06967 1-589, looked up)
chain: B1 chain with Q577A, A578L
notes: BmrA of Bacillus subtilis strain 168, full length, Q577 replaced by Ala; source: E. coli, purified in presence of detergent (DDM)
B9: BmrA F573A (natural protein, Bacillus subtilis strain 168, UniProt O06967 1-589, looked up)
chain: B1 chain with F573A, A578L
notes: BmrA of Bacillus subtilis strain 168, full length, F573 replaced by Ala; source: E. coli, purified in presence of detergent (DDM)
B10: Bacillus multidrug resistance ATP (BmrA) wt, full-length half-transporter (natural protein, Bacillus subtilis strain 168, UniProt O06967 1-589, looked up)
chain: B1 chain with A578L
notes: BmrA, ABC half-transporter of Bacillus subtilis strain 168, full length (last residue G589); Cloned into pET303-CT/His; source: E. coli, purified in presence of detergent (DDM)
B11: BmrA D583C (natural protein, Bacillus subtilis strain 168, UniProt O06967 1-589, looked up)
chain: B1 chain with A578L, D583C
notes: BmrA of Bacillus subtilis strain 168, full length, D583 replaced by Cys; Forms a disulfide-linked dimer without DTT; source: E. coli, purified in presence of detergent (DDM)
B12: BmrA A582C (natural protein, Bacillus subtilis strain 168, UniProt O06967 1-589, looked up)
chain: B1 chain with A578L, A582C
notes: BmrA of Bacillus subtilis strain 168, full length, A582 replaced by Cys; Forms a disulfide-linked dimer without DTT; source: E. coli, purified in presence of detergent (DDM)
B13: BmrA N581C (natural protein, Bacillus subtilis strain 168, UniProt O06967 1-589, looked up)
chain: B1 chain with A578L, N581C
notes: BmrA of Bacillus subtilis strain 168, full length, N581 replaced by Cys; Forms a disulfide-linked dimer without DTT; source: E. coli, purified in presence of detergent (DDM)
B14: BmrA M580C (natural protein, Bacillus subtilis strain 168, UniProt O06967 1-589, looked up)
chain: B1 chain with A578L, M580C
notes: BmrA of Bacillus subtilis strain 168, full length, M580 replaced by Cys; Forms a disulfide-linked dimer without DTT; source: E. coli, purified in presence of detergent (DDM)
B15: BmrA K579C (natural protein, Bacillus subtilis strain 168, UniProt O06967 1-589, looked up)
chain: B1 chain with A578L, K579C
notes: BmrA of Bacillus subtilis strain 168, full length, K579 replaced by Cys; Forms a disulfide-linked dimer without DTT; source: E. coli, purified in presence of detergent (DDM)

Numbering of substitutions follows the chain as printed.

The first data set deals with the molecule itself. In words: native gel or EMSA; blue native PAGE of purified BmrA wt and Ala (Val) variants in DDM micelles; 4 to 16% Bis-Tris gel; dimer to monomers. On the technique in general: Mobility shift assays separate free from complexed probe on a gel.
With B1, the binding result is “binds”.

Take B2: the binding result is on record as “binds”.

Consider B3, for which the binding result was “binds”.

For the protein B4, the binding result is given as “binds”.

With B5, the binding result is given as “binds”.

Turning to B6, the binding result is recorded as “binds”.

B7: the binding result is given as “binds”.

Consider B8, for which the binding result was “binds”.

Take B9: the binding result is given as “binds”.

Another data set concerns the molecule itself. Put plainly: cross-linking + native gel or EMSA; blue native PAGE of purified BmrA wt and Cys variants; 0.25 mg/ml preincubated ± 100 uM DTT for 30 min at room temperature, then DDM to 1%; no ATP; 4 to 16% Bis-Tris gel; dimer to monomers.
The stoichiometry N is the number of molecules, sites or subunits per partner or assembly. Turning to B10, the “stoichiometry N” value was 2.

As for B11, the “stoichiometry N” value was 2.

Turning to B12, the “stoichiometry N” value was 2.

On to B13, for which the “stoichiometry N” value came out at 2.

Take B14: the “stoichiometry N” value worked out at 2.

As to B15, the “stoichiometry N” value was found to be 2.
